The results in this text go back to patent publication US20120129720, “APTAMER THAT RECOGNIZES PEPTIDE” (KANAGAWA PREFECTURAL HOSPITAL ORGANIZATION, published 2012).

The data set has as its target T1, His-MIF (His-tag/T7 gene 10 leader/Xpress-MIF fusion) (UniProt P14174 P14174:1-115).
T1 chain: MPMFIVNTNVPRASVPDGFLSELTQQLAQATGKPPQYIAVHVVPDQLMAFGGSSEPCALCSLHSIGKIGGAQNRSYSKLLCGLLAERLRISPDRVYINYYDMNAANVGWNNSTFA
Description: SPR; data not shown. The note with it: MIF 115 aa; ATGen. In general terms: In SPR one partner is held on a chip, and binding of the other changes the refractive index at the surface.

B1: X region SEQ 2317 (ssRNA)
RNA: GGGACGCUCACGUACGCUCAGGUUGAUCCCGUUCUUCUUGACUGGCGCCUUCAUGGAGUGUCAGUGCCUGGACGUGCAGU
modifications: 3' A20 tail for capture
In the case of B1, the binding result is “binds”.

B2: X region SEQ 2329 (ssRNA)
RNA: GGGACGCUCACGUACGCUCAAAACCUGUGCUGAUCGCUGUUGGACAGUUCUACAUGCGCAUCAGUGCCUGGACGUGCAGU
modifications: 3' A20 tail for capture
For B2, the binding result is “binds”.

B3: X region SEQ 2313 (ssRNA)
RNA: GGGACGCUCACGUACGCUCAGGUGUACUGUAACCUGCCUGCCACCUGCGGCUUCGCGGACUCAGUGCCUGGACGUGCAGU
modifications: 3' A20 tail for capture
For B3, the binding result was “binds”.

B4: X region SEQ 2323 (ssRNA)
RNA: GGGACGCUCACGUACGCUCACUACAAUAAUAUUACCCCUUGUUUUCGUUUAGUCCGGGUUUCAGUGCCUGGACGUGCAGU
modifications: 3' A20 tail for capture
On to B4, for which the binding result is “binds”.

B5: X region SEQ 2326 (ssRNA)
RNA: GGGACGCUCACGUACGCUCAGGCUACUGGUCAGAGGUUUCCAGCAGAUUUCCUGCCUAAAUCAGUGCCUGGACGUGCAGU
modifications: 3' A20 tail for capture
As to B5, the binding result is “binds”.

B6: X region SEQ 2318 (ssRNA)
RNA: GGGACGCUCACGUACGCUCAACUCCCUCUUUCGCGGGCUCCUUUCCGCAACACGACUGGCUCAGUGCCUGGACGUGCAGU
modifications: 3' A20 tail for capture
As to B6, the binding result is on record as “binds”.

B7: X region SEQ 2345 (ssRNA)
RNA: GGGACGCUCACGUACGCUCAUAUGUUCGACUUAAUUUGAUCUGCAUGUUUGUCUCCGGGCUCAGUGCCUGGACGUGCAGU
modifications: 3' A20 tail for capture
Consider B7, for which the binding result is “binds”.

B8: X region SEQ 2319 (ssRNA)
RNA: GGGACGCUCACGUACGCUCAAAAGUUUUGCACGUUCUCCCGGUGUCCUGGCGCUUGGCUGUCAGUGCCUGGACGUGCAGU
modifications: 3' A20 tail for capture
Turning to B8, the binding result is listed as “binds”.

B9: X region SEQ 2347 (ssRNA)
RNA: GGGACGCUCACGUACGCUCAUUUUUCCUCUUUGCCCUAUGUUUGGGCGACGCAUCCGGGUUCAGUGCCUGGACGUGCAGU
modifications: 3' A20 tail for capture
As to B9, the binding result is on record as “binds”.

B10: X region SEQ 2310 (ssRNA)
RNA: GGGACGCUCACGUACGCUCAUGGUGGAUUGGUGCAUCUAUGUCUUCUUACUUGUUAUCAGUGCCUGGACGUGCAGU
modifications: 3' A20 tail for capture
As to B10, the binding result was “binds”.

B11: X region SEQ 2320 (ssRNA)
RNA: GGGACGCUCACGUACGCUCAGACGUUCAAGUAAAUUGGCCCUAUAUUUCGUUAUAGUAUGUCAGUGCCUGGACGUGCAGU
modifications: 3' A20 tail for capture
Consider B11, for which the binding result is listed as “binds”.

B12: X region SEQ 2340 (ssRNA)
RNA: GGGACGCUCACGUACGCUCAUGUAUUUCUGUUAGUGCUCGGUCCUGCUGAUCGGUUAGACUCAGUGCCUGGACGUGCAGU
modifications: 3' A20 tail for capture
Take B12: the binding result was “binds”.

B13: X region SEQ 2324 (ssRNA)
RNA: GGGACGCUCACGUACGCUCAUGGUGUACUGUACCUAUUCGACACUUCUGUUGAUUAGUGAUCAGUGCCUGGACGUGCAGU
modifications: 3' A20 tail for capture
With B13, the binding result was “binds”.

B14: X region SEQ 2330 (ssRNA)
RNA: GGGACGCUCACGUACGCUCACGCUUUAAUGAUCUGAUCGUGCUUCGCUGCGUAGUAUUGGUCAGUGCCUGGACGUGCAGU
modifications: 3' A20 tail for capture
In the case of B14, the binding result is “binds”.

B15: X region SEQ 2333 (ssRNA)
RNA: GGGACGCUCACGUACGCUCAAAUGACCCCGAUUCCCCUUUCGUGUUGUCUGAUCGCAGGCUCAGUGCCUGGACGUGCAGU
modifications: 3' A20 tail for capture
Take B15: the binding result is given as “binds”.

B16: X region SEQ 2328 (ssRNA)
RNA: GGGACGCUCACGUACGCUCAAAUUGUCUUCGCGUUGUCUUGAAUGGGUAAUAGUAGACGAUCAGUGCCUGGACGUGCAGU
modifications: 3' A20 tail for capture
For the molecule B16, the binding result is “binds”.

B17: X region SEQ 2332 (ssRNA)
RNA: GGGACGCUCACGUACGCUCAUUAGACGUUCUCUACGUCCGUGCCGCCCUGAUCGAGCGACUCAGUGCCUGGACGUGCAGU
modifications: 3' A20 tail for capture
For the molecule B17, the binding result is listed as “binds”.

B18: X region SEQ 2344 (ssRNA)
RNA: GGGACGCUCACGUACGCUCAGUCCAUUUUCGUCGUGUAAUUUCGGCAACGGUUCCGGGGAUCAGUGCCUGGACGUGCAGU
modifications: 3' A20 tail for capture
In the case of B18, the binding result is “binds”.

B19: X region SEQ 2311 (ssRNA)
RNA: GGGACGCUCACGUACGCUCAAGACGGUGUACUGGCACUUUUACUUCAUUGAGUAGAAAUUCGUCAGUGCCUGGACGUGCAGU
modifications: 3' A20 tail for capture
Consider B19, for which the binding result was “binds”.

B20: X region SEQ 2315 (ssRNA)
RNA: GGGACGCUCACGUACGCUCAACCCGCGACUAGGUUUUCCUGGCGACCGUCCGGUAGUGUCAGUGCCUGGACGUGCAGU
modifications: 3' A20 tail for capture
For the molecule B20, the binding result was “binds”.

B21: X region SEQ 2309 (ssRNA)
RNA: GGGACGCUCACGUACGCUCACUGGGCGACUAGGUGUACUGGCUAUCACGUUCUGGAUAAGUCAGUGCCUGGACGUGCAGU
modifications: 3' A20 tail for capture
In the case of B21, the binding result is reported as “binds”.

B22: X region SEQ 2314 (ssRNA)
RNA: GGGACGCUCACGUACGCUCAAACUUGAUCCUGGUUUCCAGCAGUAUGCCGCGUGAUUUCGUCAGUGCCUGGACGUGCAGU
modifications: 3' A20 tail for capture
Turning to B22, the binding result was “binds”.

B23: X region SEQ 2321 (ssRNA)
RNA: GGGACGCUCACGUACGCUCAGCACUGCUUACGGGGUCUCCGGCAGUAUGCCCUGGUGUAUUCAGUGCCUGGACGUGCAGU
modifications: 3' A20 tail for capture
As to B23, the binding result is recorded as “binds”.

B24: X region SEQ 2341 (ssRNA)
RNA: GGGACGCUCACGUACGCUCAUGUCCGCUGUUAAAGAUCGCGACUCUGGGCCCUGAUCGAUUCAGUGCCUGGACGUGCAGU
modifications: 3' A20 tail for capture
For the molecule B24, the binding result is on record as “binds”.

B25: X region SEQ 2337 (ssRNA)
RNA: GGGACGCUCACGUACGCUCAUCGUCGUAGGCGUACUGAUCGAAUCGUACUUACUAUUGCGUCAGUGCCUGGACGUGCAGU
modifications: 3' A20 tail for capture
For the molecule B25, the binding result is on record as “binds”.

B26: X region SEQ 2342 (ssRNA)
RNA: GGGACGCUCACGUACGCUCAUGACAUCUGAGGCUUUUUUCUUGGGGAAUUUUCCGAGACCUCAGUGCCUGGACGUGCAGU
modifications: 3' A20 tail for capture
With B26, the binding result is “binds”.

B27: X region SEQ 2322 (ssRNA)
RNA: GGGACGCUCACGUACGCUCAGUUGGUUGCUGUGCAGUCUGGGUGUCUUGGCUUUCGGAUGUCAGUGCCUGGACGUGCAGU
modifications: 3' A20 tail for capture
Consider B27, for which the binding result is “binds”.

B28: X region SEQ 2334 (ssRNA)
RNA: GGGACGCUCACGUACGCUCACACCUAGAGCCUGAACUGCCUAAGCGCUGAUCGGCAUUUAUCAGUGCCUGGACGUGCAGU
modifications: 3' A20 tail for capture
For the molecule B28, the binding result is “binds”.

B29: X region SEQ 2325 (ssRNA)
RNA: GGGACGCUCACGUACGCUCAUACUUCCGGGUGUACUGUAAGCCCUACGCUGGAGGGGCUCUCAGUGCCUGGACGUGCAGU
modifications: 3' A20 tail for capture
In the case of B29, the binding result is “binds”.

B30: X region SEQ 2339 (ssRNA)
RNA: GGGACGCUCACGUACGCUCAUGCUGAUCGUUCGGUGAAUCAUUUCCUUACCUACCUACGUUCAGUGCCUGGACGUGCAGU
modifications: 3' A20 tail for capture
With B30, the binding result is on record as “binds”.

B31: X region SEQ 2343 (ssRNA)
RNA: GGGACGCUCACGUACGCUCACUGUGCUCGGAUUUCAUCCGGGUCCUAUACUUCUACUAUAUCAGUGCCUGGACGUGCAGU
modifications: 3' A20 tail for capture
On to B31, for which the binding result is “binds”.

B32: X region SEQ 2336 (ssRNA)
RNA: GGGACGCUCACGUACGCUCAUCGAUUAGAAUACUCUUUGUGCGCCGUCGGCCUGAUCGUUCAGUGCCUGGACGUGCAGU
modifications: 3' A20 tail for capture
As to B32, the binding result is “binds”.

B33: X region SEQ 2338 (ssRNA)
RNA: GGGACGCUCACGUACGCUCAUGAGACUGAUCGUGACAACUCCUGUAUGUUCGAUCUCAUCUCAGUGCCUGGACGUGCAGU
modifications: 3' A20 tail for capture
Regarding B33, the binding result is reported as “binds”.

B34: X region SEQ 2346 (ssRNA)
RNA: GGGACGCUCACGUACGCUCAUGUUCCGGGCCGACUGGCUGUUAGAGAUCUCUGAUGUAGGUCAGUGCCUGGACGUGCAGU
modifications: 3' A20 tail for capture
On to B34, for which the binding result is recorded as “binds”.

B35: X region SEQ 2327 (ssRNA)
RNA: GGGACGCUCACGUACGCUCAAGACUCCUGUGUUUCGGGUGUACUGUCACGAUUCGUUGUCUCAGUGCCUGGACGUGCAGU
modifications: 3' A20 tail for capture
As to B35, the binding result is recorded as “binds”.

B36: X region SEQ 2316 (ssRNA)
RNA: GGGACGCUCACGUACGCUCACAACUUGUAUUGUCCGGGUGUACUGUACCGAAACUCGUGAUCAGUGCCUGGACGUGCAGU
modifications: 3' A20 tail for capture
Consider B36, for which the binding result is given as “binds”.

B37: X region SEQ 2331 (ssRNA)
RNA: GGGACGCUCACGUACGCUCAGAGUCGUUAUCUCCUGUACUAAUCACCUACUGAUCGAGCAUCAGUGCCUGGACGUGCAGU
modifications: 3' A20 tail for capture
For B37, the binding result was “binds”.

B38: X region SEQ 2335 (ssRNA)
RNA: GGGACGCUCACGUACGCUCACAGGCUGAUCGCUUCUUUACGUCUAAGUAUUGACUUUAGCUCAGUGCCUGGACGUGCAGU
modifications: 3' A20 tail for capture
In the case of B38, the binding result is “binds”.
